In patent publication US20120282257A1 one finds percent of cells positive data, which are given here for one substance.

The target in experiment [1] is human CD99 on live/intact cells (human) (UniProt P14209). In words: flow cytometry, PBMC.
The target is the same in experiment [2]. Kind of experiment: flow cytometry, live MOS cells (osteosarcoma).
For experiment [3] the target is unchanged. Kind of experiment: flow cytometry, live MG-63 cells (osteosarcoma).
For experiment [4] the target is unchanged. Kind of experiment: flow cytometry, live U2-OS cells (osteosarcoma).
The target is the same in experiment [5]. In words: flow cytometry, live H-825 cells (Ewing sarcoma).
The target is the same in experiment [6]. In words: flow cytometry, live HSSC163 cells (mesenchymal).
For experiment [7] the target is unchanged. Kind of experiment: flow cytometry, live HSSC168 cells (mesenchymal).
Experiment [8] shares this target. Kind of experiment: flow cytometry, live RD-ES cells (Ewing sarcoma).
The target is the same in experiment [9]. Kind of experiment: flow cytometry, live RM-82 cells (Ewing sarcoma).
Experiment [10] has the same target. In words: flow cytometry, live TC-71 cells (Ewing sarcoma).
Experiment [11] has the same target. In words: flow cytometry, live IOR/OS7 cells (osteosarcoma).
Experiment [12] shares this target. Kind of experiment: flow cytometry, live SKES-1 cells (Ewing sarcoma).

UniProt P14209, sequence (P14209 23-185): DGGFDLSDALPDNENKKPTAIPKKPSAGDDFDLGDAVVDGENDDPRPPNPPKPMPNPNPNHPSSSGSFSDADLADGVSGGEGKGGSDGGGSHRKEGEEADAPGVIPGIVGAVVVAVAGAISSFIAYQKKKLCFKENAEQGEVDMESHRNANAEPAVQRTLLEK

mAbO13 (antibody): the percent of cells positive in experiment [1] lay within 75 to 100%; in experiment [2] it was 75 to 100%; in experiment [3] it was 75 to 100%; in [4], 50 to 75%; in [5], 75 to 100%; in [6], 50 to 75%. Further, the percent of cells positive in [7], in [8], in [9], in experiment [10], in experiment [11] and in [12] was 75 to 100% each time.
